Data on one substance can be found in patent US20220025069A1.

Like-named read-outs stand apart in the source and are kept apart here.

Assay [1] addresses human 4-1BB (CD137), cell-surface-expressed on Jurkat-hu4-1BB-NFkB-luc2 reporter cell line (human) (UniProt Q07011). The assay is described as follows: flow cytometry, Jurkat-hu4-1BB-NFkB-luc2 cells, gMFI curve. On the technique in general: Flow cytometry measures light scatter and fluorescence of single cells or particles in a stream.
Assay [2] shares this target. Nature of the assay: cell-based or functional assay. Further details: AUC of activation curve, NFκB-luciferase in Jurkat-hu4-1BB-NFκB-luc2, crosslinking by WM-266-4 cells: unit not given beside the values.
The target in assay [3] is human Fibroblast Activation Protein (FAP), cell-surface-expressed on NIH/3T3-huFAP clone 19 cells (human) (UniProt Q12884). Nature of the assay: flow cytometry, NIH/3T3-huFAP clone 19 cells, gMFI curve.
For assay [4], the target named is human HER2, cell-surface-expressed on KPL4 and NCI-N87 cells (human) (UniProt P04626). Nature of the assay: flow cytometry, KPL4 cells, gMFI curve.
Assay [5] concerns the target human 4-1BB (CD137), cell-surface-expressed on Jurkat-hu4-1BB-NFkB-luc2 reporter cell line (human) (UniProt Q07011). The assay is described as follows: cell-based or functional assay. Further details: unit not given beside the values.
The target is the same in assay [6]. Nature of the assay: flow cytometry, Jurkat-hu4-1BB-NFkB-luc2 cells, gMFI curve. This is another data set of the same source.
In assay [7] the target is human HER2, cell-surface-expressed on KPL4 and NCI-N87 cells (human) (UniProt P04626). The assay is described as follows: flow cytometry, NCI-N87 cells, gMFI curve.

Take DP47 huIgG1 PG LALA (antibody): the Area under the curve (AUC) of binding curve in assay [1] is 101; in assay [3], 362; in assay [4], 177; in assay [6], 87; in assay [7], 1130. The substance further yielded an AUC of activation curve, NFκB-luciferase in Jurkat-hu4-1BB-NFκB-luc2, crosslinking by NIH/3T3-huFAP clone 19 cells in assay [2] of 195. For the same substance, the AUC of activation curve, NFκB-luciferase in Jurkat-hu4-1BB-NFκB-luc2, crosslinking by WM-266-4 cells in assay [2] stood at 191. The substance also yielded an AUC of activation curve, NFκB-luciferase in Jurkat-hu4-1BB-NFκB-luc2, crosslinking by KPL4 cells in assay [5] of 253. The same substance showed an AUC of activation curve, NFκB-luciferase in Jurkat-hu4-1BB-NFκB-luc2, crosslinking by NCI-N87 cells in assay [5] of 127. Besides, in assay [5], the AUC of activation curve, NFκB-luciferase in Jurkat-hu4-1BB-NFκB-luc2, crosslinking by SK-Br3 cells stood at 129.
